Measured values as given in patent US20220002418A1 (HUABO BIOPHARM SHANGHAI, published 2022).

T1: Soybean trypsin inhibitor 1-S type (Sigma, T-2327) (soybean, UniProt P01070 25-205)
T1 construct: Non-target molecule, amine-coupled to the CM5 chip
T1 sequence (looked up): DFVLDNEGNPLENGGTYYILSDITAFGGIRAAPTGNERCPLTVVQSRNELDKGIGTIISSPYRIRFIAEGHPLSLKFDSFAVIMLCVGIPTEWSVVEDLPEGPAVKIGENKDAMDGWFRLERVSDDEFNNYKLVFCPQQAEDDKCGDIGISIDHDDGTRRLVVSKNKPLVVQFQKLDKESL

B1: bispecific antibody HB0025 (bifunctional antibody 900387) (bispecific antibody, human IgG1, kappa, L234A L235A)
heavy: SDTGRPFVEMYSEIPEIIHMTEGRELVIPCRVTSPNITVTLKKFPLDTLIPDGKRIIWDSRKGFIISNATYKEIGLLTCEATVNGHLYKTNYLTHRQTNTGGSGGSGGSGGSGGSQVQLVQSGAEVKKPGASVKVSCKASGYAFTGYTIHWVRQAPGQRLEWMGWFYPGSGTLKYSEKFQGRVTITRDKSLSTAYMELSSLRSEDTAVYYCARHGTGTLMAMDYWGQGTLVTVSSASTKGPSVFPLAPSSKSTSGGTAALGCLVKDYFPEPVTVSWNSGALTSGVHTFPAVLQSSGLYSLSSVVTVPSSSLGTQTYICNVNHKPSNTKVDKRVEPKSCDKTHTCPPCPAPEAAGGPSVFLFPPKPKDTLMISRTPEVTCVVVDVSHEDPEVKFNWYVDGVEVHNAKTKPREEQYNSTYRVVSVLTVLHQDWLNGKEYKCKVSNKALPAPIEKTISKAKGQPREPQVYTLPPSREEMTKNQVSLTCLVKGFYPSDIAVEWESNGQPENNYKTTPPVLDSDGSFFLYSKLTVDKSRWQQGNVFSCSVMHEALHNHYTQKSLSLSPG
light: DVVMTQTPLSLSVTPGQPASISCKSSQSLANSYGNTYLSWYLHKPGQSPQLLIYGISNRFSGVPDRFSGSGSGTDFTLKISRVEAEDVGVYYCLQGTHQPPTFGQGTKLEIKRTVAAPSVFIFPPSDEQLKSGTASVVCLLNNFYPREAKVQWKVDNALQSGNSQESVTEQDSKDSTYSLSSTLTLSKADYEKHKVYACEVTHQGLSSPVTKSFNRGEC
notes: symmetrical molecule with two H and two L chains; also called HB0025-22A3/9E3-ProA-EP; HB0025-22F5/4E6-ProA-EP
B2: bispecific antibody 900388 (bispecific antibody, human IgG1, kappa, L234A L235A)
heavy: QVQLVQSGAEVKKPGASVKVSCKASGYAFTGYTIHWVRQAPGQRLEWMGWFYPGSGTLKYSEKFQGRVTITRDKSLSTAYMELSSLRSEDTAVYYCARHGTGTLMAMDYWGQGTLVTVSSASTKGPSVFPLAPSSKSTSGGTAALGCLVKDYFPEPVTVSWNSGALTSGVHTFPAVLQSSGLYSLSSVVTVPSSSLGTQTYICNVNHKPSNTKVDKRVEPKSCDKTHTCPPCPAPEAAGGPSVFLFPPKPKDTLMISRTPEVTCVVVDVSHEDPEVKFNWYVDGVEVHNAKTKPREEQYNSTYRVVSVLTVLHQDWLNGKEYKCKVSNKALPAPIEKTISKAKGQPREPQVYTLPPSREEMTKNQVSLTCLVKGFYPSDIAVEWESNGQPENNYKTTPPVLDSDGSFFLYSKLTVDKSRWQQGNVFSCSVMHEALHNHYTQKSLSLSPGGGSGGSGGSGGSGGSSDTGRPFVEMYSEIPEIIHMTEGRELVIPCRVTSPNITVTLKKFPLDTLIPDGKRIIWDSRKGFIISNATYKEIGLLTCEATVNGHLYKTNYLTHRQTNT
light: DVVMTQTPLSLSVTPGQPASISCKSSQSLANSYGNTYLSWYLHKPGQSPQLLIYGISNRFSGVPDRFSGSGSGTDFTLKISRVEAEDVGVYYCLQGTHQPPTFGQGTKLEIKRTVAAPSVFIFPPSDEQLKSGTASVVCLLNNFYPREAKVQWKVDNALQSGNSQESVTEQDSKDSTYSLSSTLTLSKADYEKHKVYACEVTHQGLSSPVTKSFNRGEC

Columns and labels:
[1] = target: T2, Recombinant human PD-L1 (Sino Biological, 10084-H08H) (human, UniProt Q9NZQ7 19-239); assay: SPR (Biacore 8K), antibody captured on anti-human capture CM5 chip, antigen as analyte, 1:1 model
T2 construct: Bought reagent
T2 sequence (Q9NZQ7 19-239 limits assumed): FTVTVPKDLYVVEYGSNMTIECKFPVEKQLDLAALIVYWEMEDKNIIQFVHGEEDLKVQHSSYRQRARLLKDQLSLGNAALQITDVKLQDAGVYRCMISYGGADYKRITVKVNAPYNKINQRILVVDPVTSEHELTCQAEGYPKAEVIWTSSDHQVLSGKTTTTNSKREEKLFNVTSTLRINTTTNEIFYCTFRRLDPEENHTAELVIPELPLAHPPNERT
Procedure: (§1) Methods: Anti-Human Capture-CM5 chip was prepared according to the amino coupling method of the Human Antibody Capture Kit. The chip was balanced at room temperature for 20-30 min, and then loaded into Biacore 8K instrument. The transient transduced protein was diluted to experimental working concentration with equilibration buffer. The antigen was diluted to 50 nM with equilibration buffer, and then diluted to seven concentration gradients with a 3-fold dilution, and two zero concentrations (equilibration buffer) and one repeat concentration (usually a repeat of the lowest concentration) were set. According to the order of antibody, antigen, and regeneration, cyclical experimental analysis were performed on 10 antigen concentrations (2 zero concentrations, 7 gradient concentrations and 1 repeat concentration), wherein the antigen injection flow rate was 30 μL/min, binding time was 120 seconds, and dissociation time was 600 seconds. After the analysis was completed, the corresponding analysis program was selected to analyze the data, confirming that there was no obvious reference binding. Kinetics, 1:1 binding modle was selected to fit the data, and the kinetic related parameters Ka, Kd and KD values of human-mouse chimeric antibody and humanized antibody were obtained.

[2] = target: T3, Recombinant human VEGF165 (Sino Biological, 11066-HNAH) (human, UniProt P15692-4 27-191); assay: as above
T3 construct: Bought reagent
T3 sequence (P15692 other isoform, or with tags, fused parts or gaps): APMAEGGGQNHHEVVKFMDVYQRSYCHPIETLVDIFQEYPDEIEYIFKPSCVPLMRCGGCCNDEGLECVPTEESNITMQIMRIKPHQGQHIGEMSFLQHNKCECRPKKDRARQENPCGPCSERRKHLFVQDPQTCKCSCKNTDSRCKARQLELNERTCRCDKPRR
Procedure: as §1

[3] = target: T1, Soybean trypsin inhibitor 1-S type …; assay: SPR (Biacore 8K), same method as Example 3, soybean trypsin inhibitor on CM5 chip
Procedure: (§2) Methods: Series S Sensor Chip CM5 was balanced at room temperature for 20-30 min, and loaded into Biacore 8K instrument. Egg white lysozyme and soybean trypsin inhibitor 1-S type were fixed to the CM5 chip, respectively, using the Amino Coupling Kit. The injection buffer was HBS-EP+1×. 4 balance cycles were setted. The rabbit polyclonal antibody against lysozyme, the antibody against trypsin inhibitor, and the humanized monoclonal antibody were diluted to 1000 nM with equilibration buffer, and the flow rate was set as 5 μL/min, and the injection channels were 1, 2 and 3. The Flow Cells were 1 and 2. The binding time was 10 min, and the dissociation time was 15 min. The regeneration flow rate was 50 μl/min, which is regenerated first with 0.85% phosphoric acid for 60 s, and then with 50 mM sodium hydroxide for 30 s. The results of non-specific adsorption of bispecific antibody HB0025 and non-target molecules are shown in Table 3, and the sensor diagram of the detection of non-specific adsorption of bispecific antibody and non-target molecules is shown in FIG. 3.

[4] = target: T2, Recombinant human PD-L1 (Sino …); assay: SPR (Biacore 8K), same method as Example 2
Procedure: as §1

[5] = target: T3, Recombinant human VEGF165 (Sino …); assay: SPR (Biacore 8K), same method as Example 2
Procedure: as §1

[6] = target: T4, Egg white lysozyme (Sigma, L3790) (UniProt P00698 19-147); assay: SPR (Biacore 8K), same method as Example 3, lysozyme on CM5 chip
T4 construct: Non-target molecule, amine-coupled to the CM5 chip
T4 sequence (P00698 19-147 limits assumed): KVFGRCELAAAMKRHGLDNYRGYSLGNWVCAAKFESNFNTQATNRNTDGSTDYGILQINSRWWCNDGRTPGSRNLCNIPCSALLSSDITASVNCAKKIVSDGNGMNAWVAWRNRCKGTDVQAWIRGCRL
Procedure: as §2

Binder | Kd [1] [pM] | koff [1] [s⁻¹] | kon [1] [M⁻¹ s⁻¹] | Kd [2] [pM] | koff [2] [s⁻¹] | kon [2] [M⁻¹ s⁻¹] | binding result [3] | Kd [4] [pM] | koff [4] [s⁻¹] | kon [4] [M⁻¹ s⁻¹] | Kd [5] [pM] | koff [5] [s⁻¹] | kon [5] [M⁻¹ s⁻¹] | binding result [6]
B1 | 844 | 0.000402 | 476000 | 29.5 | 0.00028 | 9.5e+06 |  |  |  |  |  |  |  | 
B2 |  |  |  |  |  |  | no binding | 824 | 0.000522 | 633000 | 39.8 | 0.00041 | 1.03e+07 | no binding
